# Results: US20100278929A1 (MEDLMMUNE, published 2010)
# Key:
# [1] = molecular target: T1, RSV (Long strain) F protein on infectious virus (respiratory syncytial virus (Long …, UniProt P12568 26-574)); test: cell-based or functional assay
# [2] = molecular target: T2, recombinantly produced, C-terminally truncated RSV (A2 strain) F protein (respiratory syncytial virus (A2 strain), UniProt P03420 26-524); test: SPR, BIAcore 3000; F protein coupled at low density to CM5 chip; KD = koff/kon
# T2 construct: extracellular domain; also called RSV F protein; truncated F protein
# T2 sequence (P03420 26-109, chain 1 of 2): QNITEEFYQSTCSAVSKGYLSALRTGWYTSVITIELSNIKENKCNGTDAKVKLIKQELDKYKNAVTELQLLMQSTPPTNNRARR
# T2 sequence (P03420 137-524, chain 2 of 2): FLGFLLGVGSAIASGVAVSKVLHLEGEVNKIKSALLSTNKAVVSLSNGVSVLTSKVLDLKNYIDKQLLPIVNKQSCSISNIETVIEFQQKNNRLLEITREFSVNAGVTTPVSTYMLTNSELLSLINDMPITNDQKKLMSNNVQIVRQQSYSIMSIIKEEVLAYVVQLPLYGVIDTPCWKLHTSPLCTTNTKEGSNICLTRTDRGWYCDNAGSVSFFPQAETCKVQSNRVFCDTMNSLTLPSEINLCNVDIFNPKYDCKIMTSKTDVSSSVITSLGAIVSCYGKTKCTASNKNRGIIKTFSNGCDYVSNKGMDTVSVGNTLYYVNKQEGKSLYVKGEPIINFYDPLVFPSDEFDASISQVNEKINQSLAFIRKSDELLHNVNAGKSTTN
# Protocol: (§1) Purified F protein was covalently coupled to an N-hydroxysuccinimide-N-ethyl-N′-[3-diethylaminopropyl]-carbodiimide (EDC/NHS) activated CM5 sensor chip at a low protein density according to the manufacturer's protocol; unreacted active ester groups were blocked with 1 M ethanolamine. For reference purposes, a blank surface, containing no antigen, was prepared under identical immobilization conditions.
# (§2) For kinetic measurements, a serial 2-fold dilution series of each mAb from 100 nm-0.2 nm, made in instrument buffer (HBS/Tween-20, BIAcore, Inc.), was injected over the F-protein and reference cell surfaces, which are connected in series. In each analysis, following the dissociation phase, the remaining bound antibody was removed from the sensor chip by passing a brief pulse of 100 mM HCl over the surface. Once an entire data set was collected, the resulting binding curves were globally fitted to a 1:1 Langmuir binding model using BIAevaluation software (BIAcore, Inc., Piscataway, N.J.). This algorithm calculates both the association rate (kₒₙ) and the dissociation rate (koff), from which the apparent equilibrium binding constant, KD, for each antibody was deduced as the ratio of the two rate constants, koff/kₒₙ.
# [3] = molecular target: T2, recombinantly produced, C-terminally …; test: SPR, BIAcore 3000; F protein coupled at low density to CM5 chip, mAb injected at 100-0.2 nM; 1:1 Langmuir fit
# Protocol: as §1, §2
# [4] = molecular target: T1, RSV (Long strain) F protein on …; test: cell-based or functional assay; remark: listed apart in the source
# [5] = molecular target: T1, RSV (Long strain) F protein on …; test: cell-based or functional assay; remark: listed apart in the source
# [6] = molecular target: T1, RSV (Long strain) F protein on …; test: cell-based or functional assay; remark: listed apart in the source
binder,measurement,setting,value
"palivizumab (antibody, V domains shown, also called SYNAGIS) VH: QVTLRESGPALVKPTQTLTLTCTFSGFSLSTSGMSVGWIRQPPGKALEWLADIWWDDKKDYNPSLKSRLTISKDTSKNQVVLKVTNMDPADTATYYCARSMITNWYFDVWGAGTTVTVSS VL: DIQMTQSPSTLSASVGDRVTITCKCQLSVGYMHWYQQKPGKAPKLLIYDTSKLASGVPSRFSGSGSGTEFTLTISSLQPDDFATYYCFQGSGYPFTFGGGTKLEIK","Mean IC50 (Control), RSV microneutralization",[1],0.535 mg/L
same,"Mean IC50 (Curve), RSV microneutralization",[1],0.453 mg/L
same,Kd,[2],3.46 nM
same,koff,[3],0.000395 s⁻¹
same,kon,[3],114000 M⁻¹ s⁻¹
same,IC50 (read off the curve),[4],~0.4 mg/L
same,"average IC50, RSV microneutralization assay",[5],0.315 mg/L
"A4B4L1FR-S28R (motavizumab) (antibody, V domains shown) VH: QVTLRESGPALVKPTQTLTLTCTFSGFSLSTAGMSVGWIRQPPGKALEWLADIWWDDKKHYNPSLKDRLTISKDTSKNQVVLKVTNMDPADTATYYCARDMIFNFYFDVWGQGTTVTVSS VL: DIQMTQSPSTLSASVGDRVTITCSASSRVGYMHWYQQKPGKAPKLLIYDTSKLASGVPSRFSGSGSGTEFTLTISSLQPDDFATYYCFQGSGYPFTFGGGTKVEIK",IC50 (read off the curve); sample: Cyno-69 BAL,[6],~0.01 mg/L
same,IC50 (read off the curve); sample: purified MEDI-524 control,[6],~0.007 mg/L
same,IC50 (read off the curve),[4],~0.02 mg/L
same,"average IC50, RSV microneutralization assay",[5],0.018 mg/L
same,"fold potency against palivizumab, RSV microneutralization assay",[5],~18 fold
